Usually Km stands for the substrate concentration at which the rate is half of its maximum.

Substrate in this series: O=[P@]1(S)OC[C@H]2OC3[C@H](F)[C@@H]2O[P@](=O)(S)OC[C@H]2O[C@H]([C@H](F)[C@@H]2O1)n1cnc2c(ncnc21)NC/C=C/CNc1ncnc2c1ncn23
Briefly: Uptake in HEK293 cells overexpressing OATP1B1. As to conditions: other: Simcyp input parameter, Table 3; 37.0 °C. The format is in vitro ADME, human. The procedure:
TransportoCells™ (Corning, N.Y., USA) expressing OATP2B1, NTCP, and HEK293-FT cells stably transfected with the vector containing OATP1B1 cDNA or OATP1B3 cDNA or empty vector were grown in a Dulbecoo's modified Eagle's medium fortified with 10% fetal calf serum and 2 mmol/L sodium butyrate (for NTCP only) in a humidified incubator at 37° C. and 5% CO2. Cells were harvested at 90% confluence and then seeded in poly-D-lysine-coated 24-well 24 h prior to transporter assay. Cells were washed twice and pre-incubated with 200 μL of pre-warmed Krebs-Henseleit buffer. After pre-incubation, cells were incubated with 3 or 10 μmol L-1 of Compound 1 in presence or absence of 100 μmol L-1 of inhibitors (Rifamycin SV for OATP2B1, Troglitazone for NTCP, Rifamycin for OATP1B1 and OATP1B3). The transport reaction was terminated by aspirating the buffer from the wells at designated time. After washing three times with 200 μL of ice-cold Krebs-Henseleit buffer, the cells were lysed and the resulting cellular lysates were analyzed by LC-MS/MS.
Concentration-dependent uptake of Compound 1 via OATP1B1 and OATP1B3 were conducted with a concentration range of 0.25-100 μmol L-1 under linear uptake. All experiments were run in triplicates.

B1: OATP1B1 (Homo sapiens) (protein)
chain: MDQNQHLNKTAEAQPSENKKTRYCNGLKMFLAALSLSFIAKTLGAIIMKSSIIHIERRFEISSSLVGFIDGSFEIGNLLVIVFVSYFGSKLHRPKLIGIGCFIMGIGGVLTALPHFFMGYYRYSKETNINSSENSTSTLSTCLINQILSLNRASPEIVGKGCLKESGSYMWIYVFMGNMLRGIGETPIVPLGLSYIDDFAKEGHSSLYLGILNAIAMIGPIIGFTLGSLFSKMYVDIGYVDLSTIRITPTDSRWVGAWWLNFLVSGLFSIISSIPFFFLPQTPNKPQKERKASLSLHVLETNDEKDQTANLTNQGKNITKNVTGFFQSFKSILTNPLYVMFVLLTLLQVSSYIGAFTYVFKYVEQQYGQPSSKANILLGVITIPIFASGMFLGGYIIKKFKLNTVGIAKFSCFTAVMSLSFYLLYFFILCENKSVAGLTMTYDGNNPVTSHRDVPLSYCNSDCNCDESQWEPVCGNNGITYISPCLAGCKSSSGNKKPIVFYNCSCLEVTGLQNRNYSAHLGECPRDDACTRKFYFFVAIQVLNLFFSALGGTSHVMLIVKIVQPELKSLALGFHSMVIRALGGILAPIYFGALIDTTCIKWSTNNCGTRGSCRTYNSTSFSRVYLGLSSMLRVSSLVLYIILIYAMKKKYQEKDINASENGSVMDEANLESLNKNKHFVPSAGADSETHC
notes: expressed in transfected cells; host or cells: HEK293-FT
Take B1: the Km came out at 2.200 µM.
